± gives the uncertainty stated by the source.
B1: POU domain, class 2, transcription factor 1, residues 285 to 354; numbered along this chain, P14859 (parent)
chain: LEELEQFAKTFKQRRIKLGFTQGDVGLAMGKLYGNDFSQTTISRFEALNLSFKNMCKLKPLLEKWLNDAE

Variants of: B1
Assay: abundance fitness (aPCA) (normalised: wild type 0, dead -1); higher = more abundant; growth selection in yeast, the domain comes from the species named
Conditions: Homo sapiens

Variant	abundance fitness
LEELEQFAKTFKQRRIKLGFTQGDVGLAMCKLYGNDFSQTTISRFEALNLSFKNMCKLKPLLEKWLNDAE [G30C]	0 ± 0.025
LEELEQFAKTFKQRRIKLGFTQGDVGLAMDKLYGNDFSQTTISRFEALNLSFKNMCKLKPLLEKWLNDAE [G30D]	-0.087 ± 0.059
LEELEQFAKTFKQRRIKLGFTQGDVGLAMAKLYGNDFSQTTISRFEALNLSFKNMCKLKPLLEKWLNDAE [G30A]	0.014 ± 0.025
LEELEQFAKTFKQRRIKLGFTQGDVHLAMGKLYGNDFSQTTISRFEALNLSFKNMCKLKPLLEKWLNDAE [G26H]	-0.098 ± 0.051
LEELEQFAKTFKQRRIKLGFTQGDVVLAMGKLYGNDFSQTTISRFEALNLSFKNMCKLKPLLEKWLNDAE [G26V]	-0.005 ± 0.023
LEELEQFAKTFKQRRIKLGFTQGDVKLAMGKLYGNDFSQTTISRFEALNLSFKNMCKLKPLLEKWLNDAE [G26K]	-0.095 ± 0.036
LEELEQFAKTFKQRRIKLGFTQGDVNLAMGKLYGNDFSQTTISRFEALNLSFKNMCKLKPLLEKWLNDAE [G26N]	-0.033 ± 0.037
LEELEQFAKTFKQRRIKLGFTQGDVCLAMGKLYGNDFSQTTISRFEALNLSFKNMCKLKPLLEKWLNDAE [G26C]	-0.043 ± 0.034
LEELEQFAKTFKQRRIKLGFTQGDVWLAMGKLYGNDFSQTTISRFEALNLSFKNMCKLKPLLEKWLNDAE [G26W]	-0.051 ± 0.025
LEELEQFAKTFKQRRIKLGFTQGDVPLAMGKLYGNDFSQTTISRFEALNLSFKNMCKLKPLLEKWLNDAE [G26P]	-0.276 ± 0.035
LEELEQFAKTFKQRRIKLGFTQGDVRLAMGKLYGNDFSQTTISRFEALNLSFKNMCKLKPLLEKWLNDAE [G26R]	-0.087 ± 0.03
LEELEQFAKTFKQRRIKLGFTQGDVTLAMGKLYGNDFSQTTISRFEALNLSFKNMCKLKPLLEKWLNDAE [G26T]	-0.038 ± 0.031
LEELEQFAKTFKQRRIKLGFTQGDVSLAMGKLYGNDFSQTTISRFEALNLSFKNMCKLKPLLEKWLNDAE [G26S]	0.025 ± 0.023
LEELEQFAKTFKQRRIKLGFTQGDVLLAMGKLYGNDFSQTTISRFEALNLSFKNMCKLKPLLEKWLNDAE [G26L]	-0.054 ± 0.022
LEELEQFAKTFKQRRIKLGFTQGDVMLAMGKLYGNDFSQTTISRFEALNLSFKNMCKLKPLLEKWLNDAE [G26M]	-0.04 ± 0.027
LEELEQFAKTFKQRRIKLGFTQGDVELAMGKLYGNDFSQTTISRFEALNLSFKNMCKLKPLLEKWLNDAE [G26E]	-0.025 ± 0.032
LEELEQFAKTFKQRRIKLGFTQGDVILAMGKLYGNDFSQTTISRFEALNLSFKNMCKLKPLLEKWLNDAE [G26I]	-0.076 ± 0.044
LEELEQFAKTFKQRRIKLGFTQGDVALAMGKLYGNDFSQTTISRFEALNLSFKNMCKLKPLLEKWLNDAE [G26A]	-0.027 ± 0.027
LEELEQFAKTFKQRRIKLGFTQGDVYLAMGKLYGNDFSQTTISRFEALNLSFKNMCKLKPLLEKWLNDAE [G26Y]	-0.043 ± 0.041
LEELEQFAKTFKQRRIKLGFTQGDVDLAMGKLYGNDFSQTTISRFEALNLSFKNMCKLKPLLEKWLNDAE [G26D]	-0.052 ± 0.043

Variant	abundance fitness
LEELEQFAKTFKQRRIKLGFTQGDVQLAMGKLYGNDFSQTTISRFEALNLSFKNMCKLKPLLEKWLNDAE [G26Q]	-0.014 ± 0.046
LEELEQFAKTFKQRRIKLGFTQGDVFLAMGKLYGNDFSQTTISRFEALNLSFKNMCKLKPLLEKWLNDAE [G26F]	-0.082 ± 0.032
LEELEQFAKTFKQRRIKLGFTQGDVGLALGKLYGNDFSQTTISRFEALNLSFKNMCKLKPLLEKWLNDAE [M29L]	-0.016 ± 0.019
LEELEQFAKTFKQRRIKLGFTQGDVGLAAGKLYGNDFSQTTISRFEALNLSFKNMCKLKPLLEKWLNDAE [M29A]	-0.145 ± 0.022
LEELEQFAKTFKQRRIKLGFTQGDVGLAKGKLYGNDFSQTTISRFEALNLSFKNMCKLKPLLEKWLNDAE [M29K]	-0.748 ± 0.081
LEELEQFAKTFKQRRIKLGFTQGDVGLAVGKLYGNDFSQTTISRFEALNLSFKNMCKLKPLLEKWLNDAE [M29V]	0.031 ± 0.023
LEELEQFAKTFKQRRIKLGFTQGDVGLAPGKLYGNDFSQTTISRFEALNLSFKNMCKLKPLLEKWLNDAE [M29P]	-0.903 ± 0.044
LEELEQFAKTFKQRRIKLGFTQGDVGLASGKLYGNDFSQTTISRFEALNLSFKNMCKLKPLLEKWLNDAE [M29S]	-0.49 ± 0.026
LEELEQFAKTFKQRRIKLGFTQGDVGLADGKLYGNDFSQTTISRFEALNLSFKNMCKLKPLLEKWLNDAE [M29D]	-0.727 ± 0.07
LEELEQFAKTFKQRRIKLGFTQGDVGLAGGKLYGNDFSQTTISRFEALNLSFKNMCKLKPLLEKWLNDAE [M29G]	-0.377 ± 0.041
LEELEQFAKTFKQRRIKLGFTQGDVGLAEGKLYGNDFSQTTISRFEALNLSFKNMCKLKPLLEKWLNDAE [M29E]	-0.808 ± 0.085
LEELEQFAKTFKQRRIKLGFTQGDVGLARGKLYGNDFSQTTISRFEALNLSFKNMCKLKPLLEKWLNDAE [M29R]	-0.998 ± 0.092
LEELEQFAKTFKQRRIKLGFTQGDVGLACGKLYGNDFSQTTISRFEALNLSFKNMCKLKPLLEKWLNDAE [M29C]	-0.092 ± 0.049
LEELEQFAKTFKQRRIKLGFTQGDVGLAIGKLYGNDFSQTTISRFEALNLSFKNMCKLKPLLEKWLNDAE [M29I]	-0.006 ± 0.042
LEELEQFAKTFKQRRIKLGFTQGDVGLAHGKLYGNDFSQTTISRFEALNLSFKNMCKLKPLLEKWLNDAE [M29H]	-0.689 ± 0.059
LEELEQFAKTFKQRRIKLGFTQGDVGLAFGKLYGNDFSQTTISRFEALNLSFKNMCKLKPLLEKWLNDAE [M29F]	-0.148 ± 0.027
LEELEQFAKTFKQRRIKLGFTQGDVGLAYGKLYGNDFSQTTISRFEALNLSFKNMCKLKPLLEKWLNDAE [M29Y]	-0.512 ± 0.057
LEELEQFAKTFKQRRIKLGFTQGDVGLAWGKLYGNDFSQTTISRFEALNLSFKNMCKLKPLLEKWLNDAE [M29W]	-0.625 ± 0.089
LEELEQFAKTFKQRRIKLGFTQGDVGLAQGKLYGNDFSQTTISRFEALNLSFKNMCKLKPLLEKWLNDAE [M29Q]	-0.497 ± 0.045

— the Human Domainome abundance scans (Beltran et al. 2025)
